Among the data in patent US20160194408A1 (published 2016) are EC50 and IC50 values, retold here.

Test [1] deals with T1, human Proprotein Convertase Subtilisin-like/Kexin type 9 (UniProt Q8NBP7 31-692). As to the kind of experiment: ELISA. (In general: In an ELISA, binding on a coated surface is turned into a signal by an enzyme label.)
Target sequence in this assay (Q8NBP7 31-692): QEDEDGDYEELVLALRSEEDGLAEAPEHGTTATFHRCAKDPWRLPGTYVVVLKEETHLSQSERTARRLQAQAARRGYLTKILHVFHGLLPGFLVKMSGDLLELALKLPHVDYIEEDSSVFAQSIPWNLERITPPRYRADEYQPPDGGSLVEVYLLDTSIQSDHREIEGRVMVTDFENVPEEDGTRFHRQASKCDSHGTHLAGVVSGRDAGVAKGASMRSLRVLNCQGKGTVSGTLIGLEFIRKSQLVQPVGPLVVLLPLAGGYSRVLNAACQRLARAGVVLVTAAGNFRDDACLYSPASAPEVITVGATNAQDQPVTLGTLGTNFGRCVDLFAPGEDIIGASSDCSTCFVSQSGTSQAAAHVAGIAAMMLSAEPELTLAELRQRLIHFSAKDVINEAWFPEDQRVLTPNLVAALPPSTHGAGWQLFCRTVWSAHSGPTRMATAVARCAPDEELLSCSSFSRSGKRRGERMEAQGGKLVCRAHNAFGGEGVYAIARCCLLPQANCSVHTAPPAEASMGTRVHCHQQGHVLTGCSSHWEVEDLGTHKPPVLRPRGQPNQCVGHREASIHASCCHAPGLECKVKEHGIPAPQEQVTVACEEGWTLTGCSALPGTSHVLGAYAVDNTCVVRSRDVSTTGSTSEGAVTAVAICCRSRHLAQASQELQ
Test [2] deals with T1, human Proprotein Convertase …. Kind of test: PCSK9-LDLR blocking ELISA.
Test [3] has the same target. Kind of test: PCSK9-LDLR blocking ELISA. This is another data set of the same source.
For test [4] the target is unchanged. As to the kind of experiment: ELISA. The source holds these as a separate data set.
A further test concerns the target T2, cynomolgus monkey PCSK9 (cynomolgus monkey, UniProt A0A7N9D9N8 150-747).
T2 chain: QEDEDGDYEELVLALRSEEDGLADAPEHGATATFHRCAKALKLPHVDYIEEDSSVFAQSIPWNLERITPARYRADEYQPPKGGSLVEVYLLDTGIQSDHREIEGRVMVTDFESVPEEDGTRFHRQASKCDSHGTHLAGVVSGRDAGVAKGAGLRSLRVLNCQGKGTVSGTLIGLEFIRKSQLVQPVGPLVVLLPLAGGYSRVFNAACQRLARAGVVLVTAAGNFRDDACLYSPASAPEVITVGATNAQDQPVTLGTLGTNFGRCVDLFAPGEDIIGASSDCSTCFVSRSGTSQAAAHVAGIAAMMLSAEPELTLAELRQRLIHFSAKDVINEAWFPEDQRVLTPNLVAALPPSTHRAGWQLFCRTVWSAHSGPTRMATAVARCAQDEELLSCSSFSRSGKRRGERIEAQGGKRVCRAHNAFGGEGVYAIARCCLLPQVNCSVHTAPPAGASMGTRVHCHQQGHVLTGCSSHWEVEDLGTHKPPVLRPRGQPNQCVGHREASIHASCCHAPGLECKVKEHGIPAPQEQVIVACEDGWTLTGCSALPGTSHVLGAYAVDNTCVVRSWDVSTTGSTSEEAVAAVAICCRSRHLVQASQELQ
Kind of test: ELISA.

Test [5] addresses T1, human Proprotein Convertase …. Kind of test: ELISA. This is another data set of the same source.

Like-named read-outs stand apart in the source and are kept apart here.

B1: Ab1 (antibody, V domains shown)
VH: QSVEESGGRLVTPGTPLTLTCTVSGFSLSSYWMTWVRQAPGKGLEYIGIISSSGSTYYATWAKGRFTISKTSSTTVDLEITSPTTEDTATYFCARDSAFSSGLEFNIWGPGTLVTVSS
VL: AYDLTQTPASVEVAVGGTVTIKCQASQSVYSNWLSWYQQKPGQPPKLLIYDASDLASGVPSRFKGSGSGTQFTLTISGVQCDDAATYYCQQGQSSSDIDNTFGGGTEVVVKR
What is called EC50 is the concentration giving half of the maximal effect. Regarding B1, the 50% effective concentration (EC50) in test [1] stood at 0.117 nM.

B2: Ab9 (antibody, V domains shown)
VH: QSVEESGGRLVTPGTPLTLTCTVSGIDLSSYAMGWVRQAPGKGLEYIGIIVSYGPTYYASWAKGRFTISKTSTTVDLKITSPTAEDTATYFCARDLDANSSGYYGCFNIWGQGTLVTVSS
VL: AVVLTQTPASVSAAVGGTVTIKCQASQSISTALAWYQQKPGQPPKLLIYAASPLASGVSSRFKSSGSGTEFTLTISDLECADAATYYCQSYYGSSNIAFGGGTELEILR
Usually IC50 stands for the midpoint of a concentration-inhibition curve. For the molecule B2, the midpoint of inhibition in test [2], the IC50, lay at 1.59 nM.

B3: Ab22 (antibody, V domains shown)
VH: EVQLVESGGGLVQPGGSLRLSCAASGFSLSSYAMNWVRQAPGKGLEWIGAIRSSGATFFASSVNGRFTISRDNSKNTVYLQMNSLRAEDTAVYYCARDTNDGWYINRLDLWGQGTLVTVSS
VL: AVLTQSPSTLSASVGDRVTITCQSSKSVYSNYLSWFQQKPGKAPKFLIYKASTLASGVPSRFSGSGSGTEFTLTISSLQPDDFATYYCAGGDTNIADNAFGGGTKVEIKR
For B3, half-maximal inhibition in test [3] (IC50) required 3.3 nM.

B4: Ab19 (antibody, V domains shown)
VH: EVQLVESGGGLVQPGGSLRLSCAASGIDLSSYAMGWVRQAPGKGLEYIGIIVSYGPTYYASWAKGRFTISRDNSKNTVYLQMNSLRAEDTATYFCARDLDAQSSGYYGAFNIWGQGTLVTVSS
VL: DIQMTQSPSTLSASVGDRVTITCQASQSISTALAWYQQKPGKAPKLLIYAASPLASGVPSRFSGSGSGTEFTLTISSLQPDDFATYYCQSYYGSSNIAFGGGTKVEIKR
In test [4], B4 showed an EC50 of 0.943 nM.

B5: Ab4 (antibody, V domains shown)
VH: QSVEESGGRLVTPGTPLTLTCTVSGIDLSSYAMIWVRQAPEKGLEYIGYIGGIDSTYYASWAKGRFTISKTSTTVDLKMTSPTTEDTATYFCGRWSGTSGYNTIWGPGTLVTVSS
VL: DVVMTQTPASVEAAVGGTVTIKCQASQSIYSNLAWYQQKPGQPPKLLIYGASNLASGVSSRFKGSRSGTEYTLTISDLECADAATYYCQCTGGGDSGNTFGGGTEVVVKR
In test [1], B5 came in with an EC50 of 0.0843 nM.

B6: Ab3 (antibody, V domains shown)
VH: QSVEESGGRLVTPGGSLTLTCTASGFSLSSYYMSWVRQAPGKGLEWIGIIYPSGSTYYASWAKGRFTISKTSTTVDLKITSPTVEDTATYFCARGGAYATLNLWGPGTLVTVSS
VL: AVLTQTPSPVSAAVGGTVTISCQSSQSVYHNNLLSWYQQKPGQPPKLLIYDASKLTSGVSSRFSGSGSGTQFTLTISGVQCDDAATYYCLGGYDDDADNGFGGGTEVVVKR
As for B6, in test [1], the EC50 came to 0.105 nM.

B7: Ab17 (antibody, V domains shown)
VH: QEQLEESGGDLVKPEGSLTLTCTASGFSFSSSYWICWVRQAPGKGLEWIGCIRPGSADYYASWAKGRFTISRASSSTVTLQMTSLTAADTATYFCASDINDGWLGQFNLWGPGTLVTVSS
VL: DVVMTQTPASVEAAVGGTVTIKCQASLSIADYLAWYLQKPGQPPKLLIYRASTLASGVPSRFKGSGSGTEYTLTISDLECADAATYYCQSYYSVTTNTYGNTFGGGTEVVVKR
B7: the EC50 worked out at 0.278 nM with cynomolgus monkey PCSK9 and 0.301 nM in test [5].

B8: Ab16 (antibody, V domains shown)
VH: QEQLVESGGGLVQPEGSLTLTCTASGFSFSSDYWICWVRQAPGKGLEWIGCIRDGGGSYYANWAKGRLTISMTSSTTVGLKMTSLTAADTATYFCASDINDGWLGQFNLWGPGTLVTVSS
VL: DIVMTQTPASVEAAVGGTVTIKCQASQSISSYLAWYQQKPGQPPKLLIYRASTLASGVPSRFSGSGSGTEFTLTISDLECADAATYYCQSYYSVTTVTYGNTFGGGTEVVVKR
Regarding B8, the EC50 was 0.31 nM in the test with cynomolgus monkey PCSK9 and 0.286 nM in test [5].

B9: Ab2 (antibody, V domains shown)
VH: QSVEESGGRLVTPGTPLTLTCTVSGFSLSSYAMSWVRQAPGKGLEWIGIIDAIDNTYYASWAKGRFTISKTSTTVDLKMTSLTTGDTATYFCARASILGYSIATGFNIWGPGTLVTVSS
VL: AYDMTQTPASVEVAVGGTVTIKCQASQSISSHLAWYQQKSGQPPKLLIYRASTLESGVSSRFKGSGSGTEFTLTISDLECADAATYYCQQGYGVSDVDNGFGGGTEVVVKR
As to B9, the EC50 in test [1] stood at 0.0936 nM.
